Reference: the supplement of paper PMC10567573

B1: TPRG1 (parent)
chain: ETIQGFWLLTKIDHWNNEKERILL

Variants of: B1
Test: protein stability index of a GFP-peptide fusion (GPS, HEK-293T) (PSI 1-6); higher = more stable
Settings: c terminus: a fixed tail appended
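Also: lentivirally expressed fusions sorted by FACS into six bins by GFP to DsRed ratio, PSI derived from sequencing read proportions per bin multiplied by bin number.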

Variant | protein stability index
ETYQGFWLLTKIDHWNNEKERILL [I3Y] | 2.55
ETTQGFWLLTKIDHWNNEKERILL [I3T] | 2.18
ETDQGFWLLTKIDHWNNEKERILL [I3D] | 1.39
ETGQGFWLLTKIDHWNNEKERILL [I3G] | 2.14
ETSQGFWLLTKIDHWNNEKERILL [I3S] | 1.28
ETCQGFWLLTKIDHWNNEKERILL [I3C] | 2.25
ETQQGFWLLTKIDHWNNEKERILL [I3Q] | 1.99
ETEQGFWLLTKIDHWNNEKERILL [I3E] | 2.04
ETNQGFWLLTKIDHWNNEKERILL [I3N] | 1.71
ETRQGFWLLTKIDHWNNEKERILL [I3R] | 1.88
ETVQGFWLLTKIDHWNNEKERILL [I3V] | 3.9
ETLQGFWLLTKIDHWNNEKERILL [I3L] | 1.53
ETPQGFWLLTKIDHWNNEKERILL [I3P] | 2.05
ETIQGFWLLTKHDHWNNEKERILL [I12H] | 1.9
ETIQGFWLLTKMDHWNNEKERILL [I12M] | 3.11
ETIQGFWLLTKGDHWNNEKERILL [I12G] | 1.13
ETIQGFWLLTKEDHWNNEKERILL [I12E] | 2.55
ETIQGFWLLTKADHWNNEKERILL [I12A] | 3.59
ETIQGFWLLTKCDHWNNEKERILL [I12C] | 2.08
ETIQGFWLLTKKDHWNNEKERILL [I12K] | 2.07
TTIQGFWLLTKIDHWNNEKERILL [E1T] | 1.82
LTIQGFWLLTKIDHWNNEKERILL [E1L] | 4.7
HTIQGFWLLTKIDHWNNEKERILL [E1H] | 2.48
ITIQGFWLLTKIDHWNNEKERILL [E1I] | 3.09

Variant | protein stability index
STIQGFWLLTKIDHWNNEKERILL [E1S] | 2.85
ATIQGFWLLTKIDHWNNEKERILL [E1A] | 2.75
VTIQGFWLLTKIDHWNNEKERILL [E1V] | 4.74
QTIQGFWLLTKIDHWNNEKERILL [E1Q] | 3.37
PTIQGFWLLTKIDHWNNEKERILL [E1P] | 2.65
DTIQGFWLLTKIDHWNNEKERILL [E1D] | 2.8
NTIQGFWLLTKIDHWNNEKERILL [E1N] | 2.13
ETIQGFWKLTKIDHWNNEKERILL [L8K] | 3.05
ETIQGFWQLTKIDHWNNEKERILL [L8Q] | 1.53
ETIQGFWTLTKIDHWNNEKERILL [L8T] | 2.54
ETIQGFWALTKIDHWNNEKERILL [L8A] | 2.08
ETIQGFWPLTKIDHWNNEKERILL [L8P] | 1.43
ETIQGFWNLTKIDHWNNEKERILL [L8N] | 1.99
ETIQGFWRLTKIDHWNNEKERILL [L8R] | 2.26
ETIQGFWSLTKIDHWNNEKERILL [L8S] | 1.56
ETIQGFWHLTKIDHWNNEKERILL [L8H] | 2.04
ETIQGFWDLTKIDHWNNEKERILL [L8D] | 2.34
ETIQGFWVLTKIDHWNNEKERILL [L8V] | 2.27
ETIQGFWGLTKIDHWNNEKERILL [L8G] | 1.61
ETIQGFWELTKIDHWNNEKERILL [L8E] | 2.42
ETIQGFWYLTKIDHWNNEKERILL [L8Y] | 4.07
ETIQGFWWLTKIDHWNNEKERILL [L8W] | 1.43
ETIQPFWLLTKIDHWNNEKERILL [G5P] | 2.33
ETIQWFWLLTKIDHWNNEKERILL [G5W] | 3.06

Variant | protein stability index
ETIQYFWLLTKIDHWNNEKERILL [G5Y] | 2.95
ETIQSFWLLTKIDHWNNEKERILL [G5S] | 2
ETIQLFWLLTKIDHWNNEKERILL [G5L] | 1.38
ETIQIFWLLTKIDHWNNEKERILL [G5I] | 1.69
ETIQQFWLLTKIDHWNNEKERILL [G5Q] | 1.98
ETIQHFWLLTKIDHWNNEKERILL [G5H] | 2.36
ETIQCFWLLTKIDHWNNEKERILL [G5C] | 3.97
ETIQKFWLLTKIDHWNNEKERILL [G5K] | 2.04
ETINGFWLLTKIDHWNNEKERILL [Q4N] | 1.82
ETIMGFWLLTKIDHWNNEKERILL [Q4M] | 3.23
ETIPGFWLLTKIDHWNNEKERILL [Q4P] | 3.54
ETIDGFWLLTKIDHWNNEKERILL [Q4D] | 3.98
ETIGGFWLLTKIDHWNNEKERILL [Q4G] | 2.68
ETIHGFWLLTKIDHWNNEKERILL [Q4H] | 1.97
ETIKGFWLLTKIDHWNNEKERILL [Q4K] | 2.89
ETIYGFWLLTKIDHWNNEKERILL [Q4Y] | 2.77
ETIEGFWLLTKIDHWNNEKERILL [Q4E] | 2.23
ETITGFWLLTKIDHWNNEKERILL [Q4T] | 1.88
ETIQGFWLLTLIDHWNNEKERILL [K11L] | 1.49
ETIQGFWLLTFIDHWNNEKERILL [K11F] | 3.4
ETIQGFWLLTHIDHWNNEKERILL [K11H] | 1.76
ETIQGFWLLTYIDHWNNEKERILL [K11Y] | 4.47
ETIQGFWLLTGIDHWNNEKERILL [K11G] | 2.08
ETIQGFWLLTSIDHWNNEKERILL [K11S] | 1.71

Variant | protein stability index
ETIQGFWLLTWIDHWNNEKERILL [K11W] | 2.02
ETIQGFWLLTAIDHWNNEKERILL [K11A] | 1.85
ETIQGFWLLTPIDHWNNEKERILL [K11P] | 2.92
ETIQGFWLLTDIDHWNNEKERILL [K11D] | 1.93
ETIQGFWLLTIIDHWNNEKERILL [K11I] | 2.32
ETIQGFWLLTRIDHWNNEKERILL [K11R] | 1.54
ETIQGCWLLTKIDHWNNEKERILL [F6C] | 3.16
ETIQGGWLLTKIDHWNNEKERILL [F6G] | 1.97
ETIQGKWLLTKIDHWNNEKERILL [F6K] | 1.3
ETIQGNWLLTKIDHWNNEKERILL [F6N] | 2.11
ETIQGQWLLTKIDHWNNEKERILL [F6Q] | 1.91
ETIQGRWLLTKIDHWNNEKERILL [F6R] | 1.91
ETIQGWWLLTKIDHWNNEKERILL [F6W] | 1.12
ETIQGPWLLTKIDHWNNEKERILL [F6P] | 1.74
ETIQGTWLLTKIDHWNNEKERILL [F6T] | 2.69
ETIQGVWLLTKIDHWNNEKERILL [F6V] | 2.36
ETIQGHWLLTKIDHWNNEKERILL [F6H] | 1.94
ETIQGYWLLTKIDHWNNEKERILL [F6Y] | 2.51
ETIQGEWLLTKIDHWNNEKERILL [F6E] | 2.25
ETIQGMWLLTKIDHWNNEKERILL [F6M] | 1.48
ETIQGDWLLTKIDHWNNEKERILL [F6D] | 1.72
ETIQGSWLLTKIDHWNNEKERILL [F6S] | 2.37
